Laboratory results as given in PMC7749166 (Communications Biology, 2020).

Test system: C5aR∆Tyr
Test: FD-/FV-based AFM dynamic force spectroscopy vs Tyr mutant (Y11F, Y14F)
Type: binding, human
Settings: C5a tip (probes effector site), FNdY fit
Source text: Finally, to obtain the full picture of the binding mechanism between C5a and its receptor, we also investigated the binding interaction between the C-terminal segment of C5a and the effector site. To achieve this, we abolished the interaction that the rigid core of C5a establishes with sulfonated residues at the binding site, so the C5aR∆Tyr mutant with mutation sites Y11F and Y14F was generated. The lack of sulfonation on the C5aR∆Tyr mutant was validated by western blot using anti-sulfated tyrosine antibodies (Fig. S1). The interaction between the C5a ligand and C5aR∆Tyr was measured and the dependence of the rupture force with the loading rate was plotted in the DFS graph in Fig. 5d. We extracted an equilibrium force Feq of 32 ± 5 pN, a binding equilibrium free energy ΔGbu of −4.7 ± 1.4 kcal mol^−1, and a receptor–ligand half-residence time, τ0.5 of 0.6 ms.
The reconstituted C5aR sample solution (either wt-C5aR or mutants) was 20-fold diluted in fusion buffer solution (20 mM HEPES, 300 mM NaCl, and 25 mM MgCl2) and adsorbed on freshly cleaved mica for 15 min. After rinsing with imaging buffer (20 mM HEPES and 300 mM NaCl) the sample was transferred to the AFM.
Rectangular Si3N4 AFM cantilevers with silicon tips (BioLever mini, Bruker) were first cleaned with chloroform for 10 min, rinsed with ethanol, N2 dried, and then cleaned for 15 min in an ultraviolet radiation and ozone cleaner (UV-O, Jetlight, CA, USA). For the aminofunctionalization, the cantilevers were immersed in an ethanolamine solution (3.3 g ethanolamine in 6.6 ml DMSO) overnight and then rinsed in DMSO (3 × 1 min) and ethanol (3 × 1 min), followed by N2 drying. This was followed by the N-hydroxysuccinimide (NHS)-PEG27-acetal linker attachment. A 1 mg portion of the NHS-PEG27-acetal linker (JKU, Linz, Austria) was diluted in 0.5 ml chloroform with 30 µl triethylamine and the cantilevers were immersed in this solution for 2 h. […]

B1: C5a: C5a, a large 74-amino acid glycoprotein; endogenous ligand of C5aR (His6-tag at N-terminal end for AFM tips) (protein)
chain: TLQKKIEEIAAKYKHSVVKKCCYDGACVNNDETCEQRAARISLGPRCIKAFTECCVVASQLRANISHKDMQLGR
modifications: left off: His6, N-terminal, kept
residence time τ0.5: 0.6 ms | binding equilibrium free energy ΔGbu (± s.e.m.): -4.7 ± 1.4 kcal/mol | equilibrium force Feq (± s.e.m.): 32 ± 5 pN
